According to PMC7275041, “m5C modification of mRNA serves a DNA damage code to promote homologous recombination”:

Molecular target: T1, RAD52 (hRAD52) (human, UniProt P43351 1-418)
T1 sequence: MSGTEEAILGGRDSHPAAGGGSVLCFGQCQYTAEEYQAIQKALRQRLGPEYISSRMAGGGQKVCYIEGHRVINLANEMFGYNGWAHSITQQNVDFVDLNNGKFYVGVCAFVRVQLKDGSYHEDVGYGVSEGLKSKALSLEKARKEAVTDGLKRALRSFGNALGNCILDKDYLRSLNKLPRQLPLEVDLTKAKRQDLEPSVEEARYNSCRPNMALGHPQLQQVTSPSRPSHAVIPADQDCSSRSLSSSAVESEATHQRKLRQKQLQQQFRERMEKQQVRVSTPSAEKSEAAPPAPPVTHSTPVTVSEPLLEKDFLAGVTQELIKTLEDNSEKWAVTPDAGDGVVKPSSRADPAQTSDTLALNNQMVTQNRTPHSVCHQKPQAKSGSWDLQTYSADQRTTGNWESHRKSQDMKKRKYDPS
Test: EMSA; higher efficiency than unmodified N1; 1 mM Mg2+; source data at top RAD52 level (360, unit not shown): 97.3 and 99.2; EMSA: 25 mM Tris-HCl pH 7.5, 1 mM MgCl2, 1 mM DTT, 50 ug/mL BSA, 50 or 300 mM NaCl and/or 0.5% NP-40, 15 min 37 C, 6% PAGE-TBE at 4 C; pull-down: Pierce magnetic RNA-protein pull-down kit
Details: protein: recombinant; tags: C-terminal 6xHis (pET28b); label: 5' maleimide-IR800 on oligo 1 (DNA); blunt

B1: 50-bp m5C DNA:RNA hybrid (oligo 1/oligo 3) (DNA:RNA)
DNA: ATCATCACCATAACGTCGATGTATCAACTTCGATTAGTCACACCAATTAA
RNA: UUAAUUGGUGUGACUAAUCGAAGUUGAUACAUCGACGUUAUGGUGAUGAU
modifications: m5C at every C of the RNA strand (positions 14, 19, 30, 33, 36; five m5C)
Q: Does B1 bind?
A: binds
